Legend:
[1] = system: LTBP-1 fluorogenic peptide SCJJ-1
[2] = system: MT1-MMP specific fluorogenic substrate MCA-Pro-Leu-Ala-Cys(p-OmeBz)-Trp-Ala-Arg(Dpa)-NH2

Chain of MMP-9 catalytic domain (part of the MMP-2/-9 catalytic domain cocktail) (chain, as listed by the source): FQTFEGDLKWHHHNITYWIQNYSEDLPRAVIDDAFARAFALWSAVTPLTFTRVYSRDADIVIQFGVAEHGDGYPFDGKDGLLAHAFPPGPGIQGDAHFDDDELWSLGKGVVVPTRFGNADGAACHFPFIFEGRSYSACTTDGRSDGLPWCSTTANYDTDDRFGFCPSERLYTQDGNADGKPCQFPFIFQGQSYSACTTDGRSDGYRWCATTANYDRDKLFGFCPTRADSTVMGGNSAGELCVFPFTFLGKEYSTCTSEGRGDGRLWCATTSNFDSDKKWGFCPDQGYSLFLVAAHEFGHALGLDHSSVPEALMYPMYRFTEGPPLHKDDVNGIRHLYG
Chain of MMP-9 (part of MMP-2/9, Chemicon) (chain, as listed by the source): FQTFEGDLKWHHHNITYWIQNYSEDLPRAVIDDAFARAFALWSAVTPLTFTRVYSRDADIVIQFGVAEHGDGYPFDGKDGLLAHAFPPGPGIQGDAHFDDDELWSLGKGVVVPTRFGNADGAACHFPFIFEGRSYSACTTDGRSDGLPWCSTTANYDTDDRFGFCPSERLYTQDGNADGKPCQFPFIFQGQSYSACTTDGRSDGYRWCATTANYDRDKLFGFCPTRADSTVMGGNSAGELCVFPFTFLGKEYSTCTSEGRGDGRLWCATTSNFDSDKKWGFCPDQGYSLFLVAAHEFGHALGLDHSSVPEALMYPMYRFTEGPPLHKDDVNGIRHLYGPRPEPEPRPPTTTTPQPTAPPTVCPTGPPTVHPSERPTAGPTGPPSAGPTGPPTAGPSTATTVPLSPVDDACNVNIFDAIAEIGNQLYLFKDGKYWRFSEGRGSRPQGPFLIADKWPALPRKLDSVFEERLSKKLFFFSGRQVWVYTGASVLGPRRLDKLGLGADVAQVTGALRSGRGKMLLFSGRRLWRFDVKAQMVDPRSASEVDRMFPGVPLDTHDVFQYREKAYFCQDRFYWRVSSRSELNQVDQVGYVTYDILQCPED
Chain of MMP-2 catalytic domain (part of the MMP-2/-9 catalytic domain cocktail) (chain, as listed by the source): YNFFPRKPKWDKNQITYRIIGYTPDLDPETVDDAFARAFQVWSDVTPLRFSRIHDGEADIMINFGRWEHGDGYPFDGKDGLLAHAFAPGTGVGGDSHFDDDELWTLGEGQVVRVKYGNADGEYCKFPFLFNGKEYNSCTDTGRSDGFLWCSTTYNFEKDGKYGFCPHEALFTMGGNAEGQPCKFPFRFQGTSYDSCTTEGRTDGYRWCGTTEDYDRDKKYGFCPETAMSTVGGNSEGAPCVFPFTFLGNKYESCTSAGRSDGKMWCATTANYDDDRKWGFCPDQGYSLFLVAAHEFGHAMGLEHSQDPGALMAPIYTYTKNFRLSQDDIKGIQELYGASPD
Chain of MMP-8 (Calbiochem) (chain, as listed by the source): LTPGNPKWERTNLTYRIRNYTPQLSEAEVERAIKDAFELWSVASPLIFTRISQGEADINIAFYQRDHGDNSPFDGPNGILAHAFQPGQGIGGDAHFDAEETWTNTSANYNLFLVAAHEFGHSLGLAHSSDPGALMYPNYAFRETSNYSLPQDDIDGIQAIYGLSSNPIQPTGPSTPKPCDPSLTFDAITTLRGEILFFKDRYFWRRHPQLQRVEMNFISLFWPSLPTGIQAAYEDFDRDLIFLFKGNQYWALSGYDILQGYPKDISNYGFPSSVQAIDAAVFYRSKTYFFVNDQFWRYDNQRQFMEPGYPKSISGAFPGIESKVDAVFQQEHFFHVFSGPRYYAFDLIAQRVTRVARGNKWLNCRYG

Row | Substance | fluorescent emission from the LTBP-1 substrate [1] | fluorescence emission (cleavage of the quenched fluorogenic substrate) [2]
1 | MMP-2 catalytic domain (part of the MMP-2/-9 catalytic domain cocktail) | Incubation with an MMP-2/-9 catalytic domain cocktail (10 ug/mL) caused no fluorescent emission from the LTBP-1 substrate. | 
2 | MMP-8 (Calbiochem) |  | Incubation with MMP-2/9, MMP-8, or ADAM-10 and 17 alone failed to cause fluorescence emission from the MT1-MMP substrate.
3 | MMP-9 (part of MMP-2/9, Chemicon) |  | Incubation with MMP-2/9, MMP-8, or ADAM-10 and 17 alone failed to cause fluorescence emission from the MT1-MMP substrate.
4 | MMP-9 catalytic domain (part of the MMP-2/-9 catalytic domain cocktail) | Incubation with an MMP-2/-9 catalytic domain cocktail (10 ug/mL) caused no fluorescent emission from the LTBP-1 substrate. | 
